Values of other authors as cited in publication PMC11083953.

How the values were obtained:
CD38 (Homo sapiens) = CD38 (Homo sapiens) (UniProt P28907)
CD20 (Homo sapiens) = CD20 (Homo sapiens) (UniProt P11836)
Chain of CD20 (Homo sapiens) (P11836 whole entry): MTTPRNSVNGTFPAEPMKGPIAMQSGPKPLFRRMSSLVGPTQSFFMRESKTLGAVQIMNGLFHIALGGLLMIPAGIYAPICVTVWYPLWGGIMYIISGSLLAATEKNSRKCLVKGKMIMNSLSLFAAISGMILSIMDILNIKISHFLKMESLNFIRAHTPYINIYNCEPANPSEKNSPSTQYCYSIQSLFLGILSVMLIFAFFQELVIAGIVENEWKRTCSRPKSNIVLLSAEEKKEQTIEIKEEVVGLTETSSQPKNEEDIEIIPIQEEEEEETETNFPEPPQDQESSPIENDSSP

Row | Substance | Kd (CD38 (Homo sapiens)) [nM] | Kd (CD20 (Homo sapiens)) [nM]
1 | daratumumab | 4.36 | –
2 | rituximab | – | 8
